This assay concerns the target Galectin-3-binding protein in conditioned media of HEK293T cells expressing rSulf-2 (human (endogenous in HEK293T)) (UniProt Q08380). Description: affinity purification with mass spectrometry.
Chain of UniProt Q08380 (Q08380 19-585): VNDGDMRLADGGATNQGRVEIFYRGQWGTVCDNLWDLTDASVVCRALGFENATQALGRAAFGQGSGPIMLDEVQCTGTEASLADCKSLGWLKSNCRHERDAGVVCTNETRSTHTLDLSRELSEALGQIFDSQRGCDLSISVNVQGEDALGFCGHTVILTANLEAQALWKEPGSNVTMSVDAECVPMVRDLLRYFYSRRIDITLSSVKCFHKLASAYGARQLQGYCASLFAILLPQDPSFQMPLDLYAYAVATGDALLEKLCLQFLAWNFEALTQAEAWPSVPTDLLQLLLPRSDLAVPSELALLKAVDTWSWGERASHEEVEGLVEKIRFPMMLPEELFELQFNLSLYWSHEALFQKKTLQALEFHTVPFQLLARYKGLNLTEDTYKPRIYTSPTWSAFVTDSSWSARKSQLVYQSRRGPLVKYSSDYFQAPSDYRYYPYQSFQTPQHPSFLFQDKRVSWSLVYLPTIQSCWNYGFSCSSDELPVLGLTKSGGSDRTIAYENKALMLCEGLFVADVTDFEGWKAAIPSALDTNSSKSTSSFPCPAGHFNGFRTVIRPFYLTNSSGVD

In the case of “rSulf-2 (HEK293T lentiviral) treated with chondroitinase ABC (enzyme)”, the fold change of the Sulf-2/LG3BP peak-area ratio against the untreated control was determined as 3 fold.

For the origin of these results see paper PMC10769223.
